Results from the supplement of paper PMC10567573.

B1: EPB41L3 (parent)
chain: SELGDYDPDECGSDYISEFRFAPN

Variants of: B1
Experiment: protein stability index of a GFP-peptide fusion (GPS, HEK-293T) (PSI 1-6); higher = more stable
Settings: c terminus: a fixed tail appended
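Also: lentivirally expressed fusions sorted by FACS into six bins by GFP to DsRed ratio, PSI derived from sequencing read proportions per bin multiplied by bin number.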

Protein stability index of substitutions, site by site:
L3: N 2.22, K 1.74, M 2.02, T 2.2, I 2.02, Q 2.46, C 2.15, W 1.91, R 2.03, D 2.66, P 2.27, H 1.74, F 2.36, A 2.05, V 2.33, E 1.88, S 2.67, G 2.05, Y 1.9
S17: V 2.2, W 1.76, G 2.36, H 1.88, P 1.52, N 2.57, T 1.61, R 2.34, A 2.33, Q 2.44, M 2.11, K 2.32, F 1.7, L 2.68, D 3.94, C 2.52, Y 1.7, E 3.88, I 1.94
E18: F 2.17, H 2.37, G 2.16, N 2.15, M 1.96, I 2.41, L 2.45, K 2.5, C 2.2, D 1.83, A 2.1
G12: W 1.83, L 2.15, C 1.55, E 2.11, F 1.72, D 3.19, Q 2.04, V 1.95, A 2.02, I 2.16, K 1.9, N 2, Y 2.32, T 1.93, R 1.77, P 2.12, H 2.22, S 2.15, M 1.88
Y15: H 2.87, R 2.74, T 2.7, F 2.18, V 2.52, P 1.84, E 4.13, S 3.43, W 1.97, A 2.46, L 2.35, G 3.75, C 2.84, D 4.23, M 2.91, Q 3.05, N 4.06, I 2.5, K 2.77
E10: F 1.55, L 1.61, T 1.85, N 1.9, M 1.75, Q 1.84, I 1.45, A 1.88, W 1.91, Y 1.55, S 1.85, V 2.06, H 1.5, D 1.81, C 2.38, P 2.04, K 1.85, R 2.26, G 1.78
S13: G 2.09, W 2.22, Y 1.91, P 2.28, H 2.1, F 2.11, A 2.08, K 1.82, L 1.97, V 1.76, I 2.37, E 2.59, M 2, Q 2.09, T 1.69, C 1.84, R 1.95, N 2.34, D 2.7
D14: K 1.49, I 2.32, N 1.99, M 2.07, C 1.89, F 2.43, Y 2.11, L 2.41, P 1.63, R 2.51, A 1.46, Q 1.47, T 2.58, E 1.5, W 1.66, G 1.27, V 1.31, H 1.86, S 1.61
I16: S 4.05, R 3.47, Y 3.47, N 4.52, H 4.14, L 2.56, A 4.33, E 4.6, P 3.7, G 4.45, V 2.76, W 3.24, K 3.37, T 3.8, Q 3.81, F 2.26, M 2.24, C 3.41, D 4.99
S1: M 2.8, G 1.99, T 2.5, H 1.67, A 1.81, Y 3.03, L 2.02, W 1.53, E 2.29, F 1.86, N 1.81, P 1.89, C 1.88, Q 2.87, K 2.35, D 2.43, I 1.71, R 1.85, V 2.25
Y6: M 1.98, Q 2.11, L 2.19, F 2.01, R 1.84, G 2.48, K 2.17, D 2.49, V 2.1, S 2.11, T 1.97, N 2.15, H 1.73, E 2.37, I 2.06, P 2.13, A 2.46, C 2.27, W 2.31
G4: L 2, E 2.43, A 2.56, R 2.67, V 2.06, D 2.35, I 1.95, H 1.67, K 2.18, M 2.12, Q 2, T 2.39, C 1.94, N 1.9, P 2.23, Y 2.12, F 1.79, W 1.7, S 2.19
D7: V 1.61, A 1.91, Y 1.7, G 2.29, H 2.14, M 1.93, P 2.31, L 1.56, S 1.47, W 2.1, E 3.01, T 1.57, N 1.68, K 1.14, R 2.44, I 1.65, F 2.29, Q 1.37, C 1.71
E2: R 1.85, Y 2.07, W 1.77, A 1.61, P 2.54, V 2.04, G 1.03, D 1.79, I 1.7, H 1.9, N 2.03, C 2.19, T 1.56, K 1.94, Q 1.9, F 2.14, L 1.77, M 1.81, S 1.68
C11: P 1.78, F 1.77, D 2.8, H 1.6, S 2.51, M 2, L 2.06, A 2.02, V 1.91, R 2.01, Q 2.49, K 2.26, Y 2.1, E 2.7, I 2.2, W 1.68, T 1.94, N 2.27, G 2.26
D5: Y 2.09, I 1.87, T 2.03, L 1.92, H 1.79, A 1.96, E 1.7, P 2.35, K 2.17, G 2.26, F 1.68, W 1.74, N 1.99, M 1.71, S 1.75, Q 1.75, V 1.51, R 2.05, C 2.06
D9: H 1.92, P 1.41, S 2.01, M 2.01, K 2.05, A 1.93, Q 2.25, R 2.12, I 1.32, N 1.55, Y 1.99, V 1.87, W 1.63, C 1.92, T 1.47, F 1.95, E 2.4, L 1.84, G 2.03
P8: R 2.1, M 2.08, E 2.29, Q 2.03, Y 1.82, C 1.51, F 2.37, W 1.76, A 2.44, L 2.26, D 2.13, H 2.1, K 2.11, V 1.9, G 2.06, S 2.29, I 1.77, N 2.19, T 1.92
